Experimental data reported in a protein production outcome set (Wang et al. 2014).

Assay: label from the status in PepcDB records

Sequence | protein production
MLNSHPKKTQSLYRAGLVVLQITESLLILALLYQAINKLIFINNYSIKFMLTFILYSPEFFMANLTTYYFIYEKFKILHSIIVITKLFQIILTLLLFILGFIFKIYVYQTSLAIILGITVVYLVFNVTILVLIKAKIKNLE | failed
MLNYRQLHYFWVVAKTGSIVRACEQLNLTAQTVSGQISLLEAALGVDLFQRVGRRLEMTEAGRLALPYAEQMFQLGDELESLLRSQPDEQQLLLRIGVADVVPKSIVYRLIAPTMELAEPIRITCREDKLERLLADLAIQRLDLVISDSPMPPHLDIKGYSQKLGECGVTFFATREVAERVGSDFPQCLHGAPLLIPGQETVVRGRLMRWFAEQKIQPRIIGEFDDSALMKAFGKSGSGIFVAPSVIVDEVQGQYGVQVIGQTDAVTESFYAITVERKVRHPGVVAIAESARNQLFTDAG | failed
MLPAEYNVLVDYTGASTFTTFFFLLFFYVLDCYNVGHEDVRDSIARVSVASVLGIIFTGFTFYSFEHWRFERTTFVVLLLLVVGMTLLWRMVYHRFGQRFTTRPRVVLVGVDRAGRVRKLLNEGMPEAEILGYVGEGDVDPDAGPCLGAPYEPVEIARRYGATMLVMLPDAPVDEDIARDLLDAKLRGLMVVDIRTLYEHVAKRIPVDQIRDEWLLTEDGFNLNTQGSVRRLKRAFDVIVSLSLLITTAPIMLVAAIAIRMESPGPVIYRQKRVGINEQEFMVLKFRSMRTDAEKDGAVWATKGDSRVTRVGRFIRKVRIDELPQLWNVLRGDMSMIGPRPERMEFVRQLEKVIPYFYVRHSVKPGITGWAQVCYPYGASVEDARYKLEYDLYYIKNMSPLLDIQIVLKTVGVILFPKGAR | failed
MLPDSSVRLNKYISESGICSRREADRYIEQGNVFLNGKRATIGDQVKPGDVVKVNGQLIEPREAEDLVLIALNKPVGIVSTTEDGERDNIVDFVNHSKRVFPIGRLDKDSQGLIFLTNHGDLVNKILRAGNDHEKEYLVTVDKPITDEFIRGMGAGVPILGTVTKKCKVKKEAPFVFRITLVQGLNRQIRRMCEHFGYEVKKLERTRIMNVSLSGIPLGEWRDLTDDELIDLFKLIENSSSEAKPKAKAKPKTAGIKRPVVKMEKTAEKGGRPASNGKRFTSPGRKKKGR | not failed
MLPDVQLLKPEVPIGLSRVGATGIKKLVEVQREGKRPIILISTFDVFVDLPAHLKGVNLSRNFEVIDEVLETLTAKPIENIEDLVVEIADHLLKRHEYATKAEARMNSELIMRKRTPKTGQRTQEVVKIFGEATLGRDGSKVIMVGVEVTGITACPCAQELVKASSAERLAKMGFDEETIQKILDAIPVATHNQRGRATLKVQVTDSFKVPIAKLIDVAKSSMSYETYEILKREDELAVVEAAHRNTRFVEDGVRYMAMELLKTFPNAPDDILVFLRQENEESIHQHNVVAERFA | failed
MLPGVGVFGTSLTARVIIPLLKDEGFAVKALWGRTQEEAEELAKEMSVPFYTSRIDEVLLHQDVDLVCINLPPPLTRQIAVKTLGIGKNVICDRTATPLDAFRMTSAAHYYPKLMSIMGNVLRFLPAFVRMKQLIEEGYVGEPLVCEVQVHGGSLLGKKYNWSCDDLMGGGGLHSVGTYIIDLLTFLTGQKAVKVHGLLKTFVKQTDHIKGIRQITSDDFCTFQMVLEGGVCCTVTLNFNVPGEFKQDVTVVGSAGRLLAVGTDLYGQRNSAPEQELLVQDATPVSNSLLPEKAFSDIPSPYLRGTIKMMQAVRQAFQDQDDRRTWDGRPLTMAATFDDCLYALCVVDTIKRSSQTGEWQNIAIMTEEPELSPAYLISEAMRRSRMSLYC | failed
MLPLSLLKTAQGHPMLVELKNGETYNGHLVNCDTWMNIHLREVICTSKDGDRFWRMPECYIRGNTIKYLRVPDEVIDKVQEEKTRTDRKPPGVGRGRGRGVDDGGARGRGRGTSMGKMGGNRGAGRGRG | failed
MLPPGMVAAESDFYLRRLWGLPHEDLKSEPRYLATFTVGINQKANIDACVKKFSENFTIVLFHYDGRVTEWDEFEWSKTAIHISVRKQTKWWYAKRFLHPDIVARYDYIFVWDEDLGVEHFNAEEYVKMVKKHGLEISQPGLEPNQGLTWQMTKRRGDMEVHKITEERPGWCSDPHLPPCAAYVEIMAPVFSRNAWRCVWHVIQNDLVHGWGLDFALRRCVEPAHEKIGVVDSQWVVHQSFPSLGNQGEATDGKAPWQGVRDRCKKEWTMFQSRMANAEKDYFKSLQVEGSSNSTATTI | failed
MLPQILIVILSLIEGLDPYKGLLFSYYFYSFKKVKESFVVPLLSTLSYYSLGILVVFFTFSSLQSSNSTKVIVIFLVIIHILMKMFLGKLLHYTGSMRVSVYNLVKSTFLNSILQMNVILLIILAIIVNTLFVFLPVGVFIVREVTYFIVLKKNNVLVLLTKFNFDYIYSVTLLILALAVLLQS | failed
MLPRVHRVRRGGTVYKYHRRTRKELPRDVPEDDPRFVAAWLAEEQRAPTVRSRSQAGTIAAACEAYLGSRSYRELSDGYRPVIRRHVERIKEQGEKALLKDLLPRHIRADLEPLSPPVASSRLKAWRKLAEFWLLKGMLDADPSEGVKRKKMGKVAGFTEWTAEDLEAFRARWPIGTAQRLALELYQWTGARCVDVIRLGPQMVGRDGVLTYVQQKTGNPAHVPWTCPAFGLEEQRADLMRCLPVGSPVYMLTEYGKPRTQKGVSQWFSAAAREAGLESRTAHGLRKYRMNALAEHGASVLVMQSWVGHTTLLEVQEYTRRADRRRVISGGHPVKRDPAGA | failed
MLPSESTLLTNATILTGTGERINNGDILLVNGKVTQVGNNLSVEQATVIDMKGKWITPGIIDVHSHLGVYPNPEVLEHHHHHH | not failed
MLPVASLLILVPLIFAVVTFFTKTKQLAAGFGFLGSLATLGLTLYAYLNFDSSTAAMQFYESVSWIPFLGVNYSVGIDGVSMPLILLNAIVIPFMILFTWKEEMESPNRFYGLILTMQAAVIGVFVALDFVVFYIFWELTLVPLFFIVNLWGGANRAHASYKFFIYTHVASLVMLLGIFGLFYTALNQTGVPTFDIRELIAQFQFFEPGLMKDGIFLAILFGFLAKLPAFPFHSWLPDAYSEAPTAGSILFILLKIGGYGLFRISLPMLPNTGSPQLMIMILGLLGSVSILYGALLALRQKDLKRMIAYSSLSHMGYVILGSAGLVTLSVSGAMFQQFSHGLIMSIMFMSAGAIQTAAGTRIINELGGLAKKMPMLTVAMMVGFMASLGLPGLTGFIAEFLVLTFTFTNLPVFVVIALLAIVVTAGYHLWAMQRAMFGVYNEKLGDVRDINSIQVFSMAVIALLVLYFGLNPSPVLDMMINNSEAIVSLAAGMGV | failed
MLPVQILKDNAQEERGESARLSSFVGAIAIGDLVKSTLGPKGMDKILISGNPESAGGIKVTNDGATILKSIGVDNPAAKVLVDMSMTQDHEVGDGTTSVTVLAAELLKEAEKLVNQRIHPQTIISGYRRALGIAQESLKKSSIESGDNIRDDLLKIARTTLGSKILSQHKEHFAQLAVDAVLRLKGSGNLDAIQIIKKLGGSMNESYLDEGFLLEKLPGMFQPRRVEKAKILIANTPMDTDKVKVFGSRVRVDGVAKVAELEAAEKLKMKEKVDKILAHNCNVFINRQLIYNYPEQLFADAKVMAIEHADFEGIERLALVLGGEIVSTFDSPQTAQFGSCDLIEEIMIGEDRLLRFSGVKLGEACSVVLRGATQQILDESERSLHDALCVLVTHVKESKTVAGAGASEILMSSAIAVEAQKVAGKEALAVEAFGRALAQLPTIICDNAGLDSAELVTRLRAEHANGRHNMGIDIEKGEVADVTKLGVIESYNVKLCMVSSAAEATEQILRVDDIIKAAPRARAQDNRPC | not failed
MLQCGAKNVNPLERFVSSLPVAAVLPELLAALDGASQVLLSAPTGAGKSTWLPLQLLAHPGINGKIILLEPRRLAARNVAQRLAELLNEKPGDTVGYRMRAQNCVGPNTRLEVITEGVLTRMIQRDPELSGVGLVILDEFHERSLQADLALALLLDVQQGLRDDLKLLIMSA | failed
MLQEDLRKKAGQLFAVGFHGVVPSPEIKTLIHEYGIGGIVLFKRNIQNAMQLQLPGPMALGATHSPELAYQVGQVTGETLRFFGINMNYAPVCDINSEPLNPVIGPRSPGDDPEFVGRFASAAAQGLREQKIIPSVKHFPGHGDTAVDSHYGLPVIEKTREQLERCELIPFRRAVAEGVEAVMTAHISLPAIGDGKLPATLSADVLSILRNEMQFEGMIITDCLEMDGIRATYGTEQGAVLSLEAGSDSIMICHTYAVQVASIQKVCEAVQSGQLSASRLEEAYRRVVKLKSKFLSWDTALLTRSLDDLVTLNRKAA | failed
